Reference: EP4786492A1

What was measured:
[1] = biological target: mouse DLL3 on CHO-K1-mDLL3 cells (mouse) (UniProt O88516); assay: FACS, CHO-K1-mDLL3 cells, 0.00128 nM antibody
[2] = biological target: mouse DLL3 on CHO-K1-mDLL3 cells (mouse) (UniProt O88516); assay: FACS, CHO-K1-mDLL3 cells, 0.032 nM antibody
[3] = biological target: human DLL3 protein expressed on CHO-K1 recombinant cells (human DLL3 extracellular segment fused to EpCAM transmembrane and intracellular regions) (human) (UniProt Q9NYJ7); assay: FACS, CHO-K1 hDLL3 cells, 100 nM antibody
Chain of human DLL3 protein expressed on CHO-K1 recombinant cells (human DLL3 extracellular segment fused to EpCAM transmembrane and intracellular regions) (human) (Q9NYJ7 other isoform, or with tags, fused parts or gaps limits assumed): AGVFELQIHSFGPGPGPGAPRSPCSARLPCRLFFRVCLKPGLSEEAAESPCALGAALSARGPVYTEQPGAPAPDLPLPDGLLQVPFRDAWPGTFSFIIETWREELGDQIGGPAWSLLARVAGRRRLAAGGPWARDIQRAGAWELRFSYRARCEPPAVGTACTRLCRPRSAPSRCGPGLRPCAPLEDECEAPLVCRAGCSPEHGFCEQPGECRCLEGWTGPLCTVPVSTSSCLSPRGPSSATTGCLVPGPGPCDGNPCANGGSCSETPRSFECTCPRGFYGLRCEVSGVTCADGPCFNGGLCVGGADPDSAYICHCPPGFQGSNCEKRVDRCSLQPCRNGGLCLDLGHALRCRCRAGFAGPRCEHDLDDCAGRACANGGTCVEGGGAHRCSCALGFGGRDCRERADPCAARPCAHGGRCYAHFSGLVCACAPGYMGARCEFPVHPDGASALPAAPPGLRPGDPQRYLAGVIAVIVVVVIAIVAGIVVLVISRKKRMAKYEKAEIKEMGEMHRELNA

[4] = biological target: human DLL3 protein expressed on CHO-K1 recombinant cells (human DLL3 extracellular segment fused to EpCAM transmembrane and intracellular regions) (human) (UniProt Q9NYJ7); assay: FACS, CHO-K1 hDLL3 cells, 0.00128 nM antibody
[5] = biological target: monkey DLL3 on CHO-K1-cyno DLL3 cells (cynomolgus monkey); assay: FACS, CHO-K1-cyno DLL3 cells, 0.0064 nM antibody
Chain of monkey DLL3 on CHO-K1-cyno DLL3 cells (cynomolgus monkey) (chain, as listed by the source limits assumed): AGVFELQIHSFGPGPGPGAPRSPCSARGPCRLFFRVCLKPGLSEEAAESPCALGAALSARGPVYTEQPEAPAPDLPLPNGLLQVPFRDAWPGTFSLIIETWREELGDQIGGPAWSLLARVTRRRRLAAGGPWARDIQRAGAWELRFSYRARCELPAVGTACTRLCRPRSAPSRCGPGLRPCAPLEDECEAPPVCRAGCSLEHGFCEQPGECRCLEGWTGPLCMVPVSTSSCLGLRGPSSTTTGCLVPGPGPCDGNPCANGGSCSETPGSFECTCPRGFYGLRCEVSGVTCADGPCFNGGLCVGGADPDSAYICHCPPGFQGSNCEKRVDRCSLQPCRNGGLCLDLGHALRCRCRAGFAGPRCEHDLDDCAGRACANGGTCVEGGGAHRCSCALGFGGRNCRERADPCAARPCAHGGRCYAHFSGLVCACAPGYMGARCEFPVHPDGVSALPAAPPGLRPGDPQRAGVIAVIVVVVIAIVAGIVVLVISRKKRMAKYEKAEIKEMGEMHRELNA

[6] = biological target: human DLL4 protein (Acro, Cat. No. DL4-H5227) (human) (UniProt Q9NR61); assay: ELISA, coated hDLL4; maximum over 0.1, 1, 10, 100 nM antibody
Chain of human DLL4 protein (Acro, Cat. No. DL4-H5227) (human) (Q9NR61 27-524 limits assumed): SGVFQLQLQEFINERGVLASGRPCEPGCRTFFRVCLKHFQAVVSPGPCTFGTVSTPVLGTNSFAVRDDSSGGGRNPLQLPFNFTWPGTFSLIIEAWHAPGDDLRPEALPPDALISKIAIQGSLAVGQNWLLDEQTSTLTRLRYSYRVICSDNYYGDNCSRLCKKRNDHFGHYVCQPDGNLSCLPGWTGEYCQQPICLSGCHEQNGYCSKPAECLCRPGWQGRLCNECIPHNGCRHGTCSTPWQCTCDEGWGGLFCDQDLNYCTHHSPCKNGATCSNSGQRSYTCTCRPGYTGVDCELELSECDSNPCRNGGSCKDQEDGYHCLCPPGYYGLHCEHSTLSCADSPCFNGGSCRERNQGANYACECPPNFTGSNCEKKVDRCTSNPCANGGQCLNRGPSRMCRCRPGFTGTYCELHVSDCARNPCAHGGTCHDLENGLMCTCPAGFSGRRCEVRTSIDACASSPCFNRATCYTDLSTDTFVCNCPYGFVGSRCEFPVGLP

[7] = biological target: human DLL3 protein expressed on CHO-K1 recombinant cells (human DLL3 extracellular segment fused to EpCAM transmembrane and intracellular regions) (human) (UniProt Q9NYJ7); assay: FACS, CHO-K1 hDLL3 cells, 4 nM antibody
[8] = biological target: DLL3 endogenously expressed on NCI-H82 cells (UniProt Q9NYJ7); assay: FACS on NCI-H82 cells; antibody 4 nM
Chain of DLL3 endogenously expressed on NCI-H82 cells (Q9NYJ7 27-618): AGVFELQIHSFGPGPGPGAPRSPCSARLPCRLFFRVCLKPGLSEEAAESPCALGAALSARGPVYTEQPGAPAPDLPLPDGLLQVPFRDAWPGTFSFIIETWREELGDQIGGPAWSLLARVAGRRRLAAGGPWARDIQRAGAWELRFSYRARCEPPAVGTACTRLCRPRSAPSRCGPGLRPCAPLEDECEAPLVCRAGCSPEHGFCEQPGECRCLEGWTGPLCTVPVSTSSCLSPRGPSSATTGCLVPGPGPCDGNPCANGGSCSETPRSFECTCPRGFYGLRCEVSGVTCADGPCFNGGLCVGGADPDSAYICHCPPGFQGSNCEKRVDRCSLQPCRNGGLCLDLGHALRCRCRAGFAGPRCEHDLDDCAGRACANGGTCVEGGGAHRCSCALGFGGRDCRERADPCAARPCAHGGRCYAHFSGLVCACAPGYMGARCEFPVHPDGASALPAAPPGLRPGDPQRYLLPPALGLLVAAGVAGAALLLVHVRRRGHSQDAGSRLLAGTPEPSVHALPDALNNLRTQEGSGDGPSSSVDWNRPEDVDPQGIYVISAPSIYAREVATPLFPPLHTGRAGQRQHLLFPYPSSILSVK

[9] = biological target: mouse DLL3 on CHO-K1-mDLL3 cells (mouse) (UniProt O88516); assay: FACS, CHO-K1-mDLL3 cells, 20 nM antibody
[10] = biological target: human DLL3 protein (extracellular segment, His tag) (human) (UniProt Q9NYJ7); assay: SPR (Biacore 8K), antibody captured on Protein A chip, DLL3 antigen in solution, 1:1 Langmuir fit
Chain of human DLL3 protein (extracellular segment, His tag) (human) (Q9NYJ7 27-492): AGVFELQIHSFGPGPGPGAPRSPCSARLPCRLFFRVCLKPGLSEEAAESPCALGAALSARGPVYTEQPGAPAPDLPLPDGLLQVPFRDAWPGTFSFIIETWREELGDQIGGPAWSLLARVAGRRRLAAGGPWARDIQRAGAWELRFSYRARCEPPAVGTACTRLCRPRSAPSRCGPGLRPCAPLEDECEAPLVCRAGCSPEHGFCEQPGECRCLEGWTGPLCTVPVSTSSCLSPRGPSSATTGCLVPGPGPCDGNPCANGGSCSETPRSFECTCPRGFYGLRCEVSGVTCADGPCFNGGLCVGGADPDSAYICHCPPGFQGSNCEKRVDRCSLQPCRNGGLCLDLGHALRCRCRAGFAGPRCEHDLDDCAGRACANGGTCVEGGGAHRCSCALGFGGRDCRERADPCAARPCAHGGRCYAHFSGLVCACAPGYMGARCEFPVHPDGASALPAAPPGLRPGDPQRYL

[11] = biological target: DLL3 endogenously expressed on NCI-H82 cells (UniProt Q9NYJ7); assay: FACS on NCI-H82 cells; antibody 0.032 nM
[12] = biological target: human DLL1 protein (Acro, Cat. No. DL1-H52H8) (human) (UniProt O00548); assay: ELISA, coated hDLL1; maximum over 0.1, 1, 10, 100 nM antibody
Chain of human DLL1 protein (Acro, Cat. No. DL1-H52H8) (human) (O00548 18-540 limits assumed): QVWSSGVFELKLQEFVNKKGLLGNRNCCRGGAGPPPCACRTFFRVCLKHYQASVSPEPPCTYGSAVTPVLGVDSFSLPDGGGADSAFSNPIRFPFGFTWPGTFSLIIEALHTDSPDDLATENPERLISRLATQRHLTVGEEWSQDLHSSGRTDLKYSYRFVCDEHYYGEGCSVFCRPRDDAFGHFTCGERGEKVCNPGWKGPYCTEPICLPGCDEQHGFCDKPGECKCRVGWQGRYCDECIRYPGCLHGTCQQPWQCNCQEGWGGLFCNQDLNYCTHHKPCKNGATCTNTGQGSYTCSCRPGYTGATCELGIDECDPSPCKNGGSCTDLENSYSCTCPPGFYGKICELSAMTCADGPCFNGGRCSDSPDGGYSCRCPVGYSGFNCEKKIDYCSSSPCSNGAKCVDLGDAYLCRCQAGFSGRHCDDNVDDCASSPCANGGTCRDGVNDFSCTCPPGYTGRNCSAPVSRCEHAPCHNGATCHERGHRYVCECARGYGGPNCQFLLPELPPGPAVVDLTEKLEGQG

[13] = biological target: human DLL3 protein expressed on CHO-K1 recombinant cells (human DLL3 extracellular segment fused to EpCAM transmembrane and intracellular regions) (human) (UniProt Q9NYJ7); assay: FACS, CHO-K1 hDLL3 cells, 0.16 nM antibody
[14] = biological target: monkey DLL3 on CHO-K1-cyno DLL3 cells (cynomolgus monkey); assay: FACS, CHO-K1-cyno DLL3 cells, 20 nM antibody
[15] = biological target: mouse DLL3 on CHO-K1-mDLL3 cells (mouse) (UniProt O88516); assay: FACS, CHO-K1-mDLL3 cells, 100 nM antibody
[16] = biological target: DLL3 endogenously expressed on NCI-H82 cells (UniProt Q9NYJ7); assay: FACS on NCI-H82 cells; antibody 20 nM
[17] = biological target: human DLL3 protein expressed on CHO-K1 recombinant cells (human DLL3 extracellular segment fused to EpCAM transmembrane and intracellular regions) (human) (UniProt Q9NYJ7); assay: FACS, CHO-K1 hDLL3 cells, 0.0064 nM antibody
[18] = biological target: mouse DLL3 on CHO-K1-mDLL3 cells (mouse) (UniProt O88516); assay: FACS, CHO-K1-mDLL3 cells, 4 nM antibody
[19] = biological target: mouse DLL3 on CHO-K1-mDLL3 cells (mouse) (UniProt O88516); assay: FACS, CHO-K1-mDLL3 cells, 0.0064 nM antibody
[20] = biological target: mouse DLL3 on CHO-K1-mDLL3 cells (mouse) (UniProt O88516); assay: FACS, CHO-K1-mDLL3 cells, 0.8 nM antibody
[21] = biological target: human delta-like ligand 3 (DLL3) on SHP77 cells (human) (UniProt Q9NYJ7); assay: FACS on SHP77 cells
Chain of human delta-like ligand 3 (DLL3) on SHP77 cells (human) (Q9NYJ7 27-618, stated change not applied): as the sequence (Q9NYJ7 27-618) above

[22] = biological target: human DLL3 protein expressed on CHO-K1 recombinant cells (human DLL3 extracellular segment fused to EpCAM transmembrane and intracellular regions) (human) (UniProt Q9NYJ7); assay: FACS, CHO-K1 hDLL3 cells, 20 nM antibody
[23] = biological target: DLL3 endogenously expressed on NCI-H82 cells (UniProt Q9NYJ7); assay: FACS on NCI-H82 cells; antibody 0.0064 nM
[24] = biological target: DLL3 endogenously expressed on NCI-H82 cells (UniProt Q9NYJ7); assay: FACS on NCI-H82 cells; antibody 0.00128 nM
[25] = biological target: monkey DLL3 on CHO-K1-cyno DLL3 cells (cynomolgus monkey); assay: FACS, CHO-K1-cyno DLL3 cells, 0.00128 nM antibody
[26] = biological target: monkey DLL3 on CHO-K1-cyno DLL3 cells (cynomolgus monkey); assay: FACS, CHO-K1-cyno DLL3 cells, 0.8 nM antibody
[27] = biological target: DLL3 endogenously expressed on NCI-H82 cells (UniProt Q9NYJ7); assay: FACS on NCI-H82 cells; antibody 100 nM
[28] = biological target: monkey DLL3 on CHO-K1-cyno DLL3 cells (cynomolgus monkey); assay: FACS, CHO-K1-cyno DLL3 cells, 4 nM antibody
[29] = biological target: monkey DLL3 on CHO-K1-cyno DLL3 cells (cynomolgus monkey); assay: FACS, CHO-K1-cyno DLL3 cells, 100 nM antibody
[30] = biological target: mouse DLL3 on CHO-K1-mDLL3 cells (mouse) (UniProt O88516); assay: FACS, CHO-K1-mDLL3 cells, 0.16 nM antibody
[31] = biological target: monkey DLL3 on CHO-K1-cyno DLL3 cells (cynomolgus monkey); assay: FACS, CHO-K1-cyno DLL3 cells, 0.032 nM antibody
[32] = biological target: DLL3 endogenously expressed on NCI-H82 cells (UniProt Q9NYJ7); assay: FACS on NCI-H82 cells; antibody 0.16 nM
[33] = biological target: human DLL3 protein expressed on CHO-K1 recombinant cells (human DLL3 extracellular segment fused to EpCAM transmembrane and intracellular regions) (human) (UniProt Q9NYJ7); assay: FACS, CHO-K1 hDLL3 cells, 0.032 nM antibody
[34] = biological target: monkey DLL3 on CHO-K1-cyno DLL3 cells (cynomolgus monkey); assay: FACS, CHO-K1-cyno DLL3 cells, 0.16 nM antibody
[35] = biological target: DLL3 endogenously expressed on NCI-H82 cells (UniProt Q9NYJ7); assay: FACS on NCI-H82 cells; antibody 0.8 nM
[36] = biological target: human DLL3 protein expressed on CHO-K1 recombinant cells (human DLL3 extracellular segment fused to EpCAM transmembrane and intracellular regions) (human) (UniProt Q9NYJ7); assay: FACS, CHO-K1 hDLL3 cells, 0.8 nM antibody

Chain of mouse DLL3 on CHO-K1-mDLL3 cells (mouse) (O88516 other isoform, or with tags, fused parts or gaps limits assumed): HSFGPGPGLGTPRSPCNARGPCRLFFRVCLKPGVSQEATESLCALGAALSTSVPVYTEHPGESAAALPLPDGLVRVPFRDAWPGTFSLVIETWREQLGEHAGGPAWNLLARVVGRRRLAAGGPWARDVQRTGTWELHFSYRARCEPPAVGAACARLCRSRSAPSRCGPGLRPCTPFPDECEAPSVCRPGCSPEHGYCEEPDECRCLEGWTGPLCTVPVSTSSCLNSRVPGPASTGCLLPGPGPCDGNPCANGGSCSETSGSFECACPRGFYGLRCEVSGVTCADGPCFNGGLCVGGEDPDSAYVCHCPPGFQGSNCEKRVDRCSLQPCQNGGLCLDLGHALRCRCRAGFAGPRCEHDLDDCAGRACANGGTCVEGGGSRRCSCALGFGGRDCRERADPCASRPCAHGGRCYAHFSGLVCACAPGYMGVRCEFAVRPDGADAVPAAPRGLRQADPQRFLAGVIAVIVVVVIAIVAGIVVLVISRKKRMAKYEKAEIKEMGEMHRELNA

B1: Hab015VL4VH1b-hFc (scFv, part only; not given: VL-VH linker and human IgG1 Fc, V domains shown, not shown: another chain or arm of the molecule; a dimerising Fc or GST; small tags and cut ends)
VL: NIVLTQSPATLSLSPGERATLSCKASENVGTYVSWFQQKPGQSPRLLIYGASNRYTGIPARFSGSGSGTDFTLTISSLEPEDFAVYYCGQFYSFPSTFGGGTKVEIK
VH: EVQLVESGGGLVKPGGSLRLSCAASGITFSNFWMNWVRQAPGKGLEWVGQIRLKSEDYATHYAESVKGRFTISREDSKNTVYLQMNSLKTEDTAVYYCTTGYYFDYWGQGTTVTVSS
B1 was tested, and the MFI [1] was 114 MFI, the MFI [2] was 172 MFI and the MFI [3] was 11800 MFI. For the same binder, the MFI [4] was 120 MFI, the MFI [5] was 163 MFI and the Emax of OD450 nm binding value [6] was 0.67 OD450 nm. The MFI [7] was 10300 MFI, the MFI [8] was 1020 and the MFI [9] was 1340 MFI. The Kd [10] was 0.0194 nM, the koff [10] was 3.49e-05 s⁻¹ and the kon [10] was 1.8e+06 M⁻¹ s⁻¹. The MFI [11] was 218, the Emax of OD450 nm binding value [12] was 0.39 OD450 nm and the MFI [13] was 937 MFI. It also gave an MFI [14] of 6820 MFI, an MFI [15] of 1490 MFI and an MFI [16] of 1130. The MFI [17] was 152 MFI, the MFI [18] was 1120 MFI and the MFI [19] was 123 MFI. The MFI [20] was 813 MFI, the MFI at 0.00128 nM [21] was 97 MFI and the MFI at 0.0064 nM [21] was 113 MFI. It also gave an MFI at 0.032 nM [21] of 169 MFI, an MFI at 0.16 nM [21] of 371 MFI and an MFI at 0.8 nM [21] of 720 MFI. The MFI at 4 nM [21] was 829 MFI, the MFI at 20 nM [21] was 962 MFI and the MFI at 100 nM [21] was 1190 MFI. It also gave an MFI [22] of 11300 MFI, an MFI [23] of 131 and an MFI [24] of 114. For the same binder, the MFI [25] was 117 MFI, the MFI [26] was 4290 MFI and the MFI [27] was 1410. The MFI [28] was 6270 MFI, the MFI [29] was 7520 MFI and the MFI [30] was 350 MFI. The MFI [31] was 389 MFI, the MFI [32] was 461 and the MFI [33] was 302 MFI. For the same binder, the MFI [34] was 1200 MFI, the MFI [35] was 914 and the MFI [36] was 4640 MFI.

B2: Hab014VL3VH1-hFc (scFv, part only; not given: VL-VH linker and human IgG1 Fc, V domains shown, not shown: another chain or arm of the molecule; a dimerising Fc or GST; small tags and cut ends)
VL: DIVMTQSPDSLAVSLGERATINCKASEDIYNRLAWYQQKPGQTPKLLISGATSLETGVPDRFSGSGSGKDFTLTISSLQAEDVAVYYCQQYWSLPWTFGGGTKVEIK
VH: EVQLVQSGAEVKKPGASVKVSCKASGYTFTDYYMNWVRQAPGQRLEWMGDINPNHGDTGYNQKFTGRVTITVDKSASTAYMELSSLRSEDTAVYYCARNFFYYGTTYGWYFDVWGQGTTVTVSS
With B2 the MFI [1] was 103 MFI, the MFI [2] was 137 MFI and the MFI [3] was 16500 MFI. For the same binder, the MFI [4] was 207 MFI, the MFI [5] was 245 MFI and the Emax of OD450 nm binding value [6] was 0.1 OD450 nm. For the same binder, the MFI [7] was 15300 MFI, the MFI [8] was 596 and the MFI [9] was 332 MFI. For the same binder, the Kd [10] was 0.0946 nM, the koff [10] was 0.000129 s⁻¹ and the kon [10] was 1.36e+06 M⁻¹ s⁻¹. The MFI [11] was 178, the Emax of OD450 nm binding value [12] was 0.08 OD450 nm and the MFI [13] was 2060 MFI. It also gave an MFI [14] of 32500 MFI, an MFI [15] of 382 MFI and an MFI [16] of 732. The MFI [17] was 299 MFI, the MFI [18] was 296 MFI and the MFI [19] was 110 MFI. For the same binder, the MFI [20] was 253 MFI, the MFI at 0.00128 nM [21] was 91 MFI and the MFI at 0.0064 nM [21] was 96 MFI. For the same binder, the MFI at 0.032 nM [21] was 112 MFI, the MFI at 0.16 nM [21] was 179 MFI and the MFI at 0.8 nM [21] was 348 MFI. For the same binder, the MFI at 4 nM [21] was 567 MFI, the MFI at 20 nM [21] was 770 MFI and the MFI at 100 nM [21] was 1120 MFI. For the same binder, the MFI [22] was 15700 MFI, the MFI [23] was 125 and the MFI [24] was 108. It also gave an MFI [25] of 180 MFI, an MFI [26] of 8680 MFI and an MFI [27] of 1030. For the same binder, the MFI [28] was 27700 MFI, the MFI [29] was 33900 MFI and the MFI [30] was 192 MFI. It also gave an MFI [31] of 565 MFI, an MFI [32] of 356 and an MFI [33] of 555 MFI. For the same binder, the MFI [34] was 1730 MFI, the MFI [35] was 547 and the MFI [36] was 7320 MFI.
